Four molecules from patent US8530168B2, “Fusion protein comprising a Caspase domain and a nuclear hormone receptor binding domain and methods and uses thereof” (Helmholtz Zentrum Munich Deutsches Forschungszentrum fuer …, priority 2007, dated 2013) can be followed below.

Holding throughout (format): cell-based, mouse
Series [1] concerns MEF5/N9 cells. Nature of the series: MTT cytotoxicity assay of stably transfected MEF5/N9 clones. Conditions: 10^−8 M 4-OH-tamoxifen, 48 h. The procedure, abridged:
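Hygromycin-selected MEF5/N9 clones stably carrying ER(T2) fusion constructs, 4·10^3 cells/well, treated 48 h with or without 10^−8 M 4-OH-tamoxifen, in triplicate. Survival measured by MTT (0.5 mg/ml, 4 h, 37° C), formazan dissolved in HCl/isopropanol, absorbance at 570 nm.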
(Tetrazolium dyes change colour on reduction, which living cells bring about.)

Series [2] has as its system MEF5/N9 cells. Nature of the series: Transient cotransfection of ER(T2) fusion expression vectors with β-galactosidase reporter; β-galactosidase activity in lysates. Conditions: 10^−8 M 4-OH-tamoxifen, 48 h; for relative β-galactosidase activity in presence of 4-OH-tamoxifen compared to the negative control: relative to Cre-ER(T2) without 4-OH-tamoxifen. The procedure, abridged: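 MEF5/N9 mouse embryonic fibroblasts transiently cotransfected with pCMV-β-gal reporter (100 ng) plus ER(T2) fusion vector (100 ng; 50 ng for Casp9 constructs), then induced with 10^−8 M 4-OH-tamoxifen for 48 h. Lysate β-galactosidase read by chemiluminescence (RLU), mean of two wells, expressed relative to uninduced pCAG-Cre-ER(T2) control set at 1.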

In series [3] the test system is MEF5/N9 cells. Described as above. To be noted: no 4-OH-tamoxifen; transient transfection 50 or 100 ng vector; relative to Cre-ER(T2) without 4-OH-tamoxifen.

B1: Casp9full-ER(T2): full length murine Caspase-9 fused to ER(T2) ligand binding domain, SEQ ID NO: 29 (protein)
chain: MDEADRQLLRRCRVRLVSELQVAELWDALLSRELFTRDMIEDIQQAGSGSRRDQARQLVTDLETRGRQALPLFISCLEDTGQGTLASLLQSGRQAAKQDPEAVKPLDHLVPVVLGPMGLTAKEQRVVKLDPSQPAVGNLTPVVLGPEELWPARLKPEVLRPETPRPVDIGSGGAHDVCVPGKIRGHADMAYTLDSDPCGHCLIINNVNFCPSSGLGTRTGSNLDRDKLEHRFRWLRFMVEVKNDLTAKKMVTALMEMAHRNHRALDCFVVVILSHGCQASHLQFPGAVYGTDGCSVSIEKIVNIFNGSGCPSLGGKPKLFFIQACGGEQKDHGFEVACTSSQGRTLDSDSEPDAVPYQEGPRPLDQLDAVSSLPTPSDILVSYSTFPGFVSWRDKKSGSWYIETLDGILEQWARSEDLQSLLLRVANAVSAKGTYKQIPGCFNFLRKKLFFKTSVEPSAGDMRAANLWPSPLMIKRSKKNSLALSLTADQMVSALLDAEPPILYSEYDPTRPFSEASMMGLLTNLADRELVHMINWAKRVPGFVDLTLHDQVHLLECAWLEILMIGLVWRSMEHPVKLLFAPNLLLDRNQGKCVEGMVEIFDMLLATSSRFRMMNLQGEEFVCLKSIILLNSGVYTFLSSTLKSLEEKDHIHRVLDKITDTLIHLMAKAGLTLQQQHQRLAQLLLILSHIRHMSNKGMEHLYSMKCKNVVPLYDLLLEAADAHRLHAPTSRGGASVEETDQSHLATAGSTSSHSLQKYYITGEAEGFPATA
modifications: fusion protein Casp9full-ER(T2)
For the molecule B1, the “cell viability in the presence of 4-OH-tamoxifen (MTT)” value (shortened to “cell viability in the presence”) in the series with MEF5/N9 cells [1] was 6%. For the same molecule, in the series on MEF5/N9 cells [2], the “relative β-galactosidase activity in presence of 4-OH-tamoxifen compared to the negative control” value is 7%. Also, in the series with MEF5/N9 cells [3], the “basal toxicity: relative β-galactosidase activity compared to the negative control in absence of 4-OH-tamoxifen” value is given as 62%.

B2: Cre-ER(T2): fusion of Cre recombinase to ER(T2) ligand binding domain, negative control, SEQ ID NO: 5 (protein)
chain: MSNLLTVHQNLPALPVDATSDEVRKNLMDMFRDRQAFSEHTWKMLLSVCRSWAAWCKLNNRKWFPAEPEDVRDYLLYLQARGLAVKTIQQHLGQLNMLHRRSGLPRPSDSNAVSLVMRRIRKENVDAGERAKQALAFERTDFDQVRSLMENSDRCQDIRNLAFLGIAYNTLLRIAEIARIRVKDISRTDGGRMLIHIGRTKTLVSTAGVEKALSLGVTKLVERWISVSGVADDPNNYLFCRVRKNGVAAPSATSQLSTRALEGIFEATHRLIYGAKDDSGQRYLAWSGHSARVGAARDMARAGVSIPEIMQAGGWTNVNIVMNYIRNLDSETGAMVRLLEDGDLEPSAGDMRAANLWPSPLMIKRSKKNSLALSLTADQMVSALLDAEPPILYSEYDPTRPFSEASMMGLLTNLADRELVHMINWAKRVPGFVDLTLHDQVHLLECAWLEILMIGLVWRSMEHPVKLLFAPNLLLDRNQGKCVEGMVEIFDMLLATSSRFRMMNLQGEEFVCLKSIILLNSGVYTFLSSTLKSLEEKDHIHRVLDKITDTLIHLMAKAGLTLQQQHQRLAQLLLILSHIRHMSNKGMEHLYSMKCKNVVPLYDLLLEAADAHRLHAPTSRGGASVEETDQSHLATAGSTSSHSLQKYYITGEAEGFPATA
modifications: fusion protein Cre-ER(T2)
As to B2, in the series on MEF5/N9 cells [1], the “cell viability in the presence” value was “not affected by treatment with 4-OH-tamoxifen”. Also, the “4-OH-tamoxifen-dependent activity / toxicity in transient transfection (in words)” value with MEF5/N9 cells [2] is “Neither the expression of the negative control Cre-ER(T2) alone nor the combined treatment with 4-OH-tamoxifen at the concentration of 10^−8 M displayed toxic side effects”.

B3: Casp8-ER(T2): fusion of murine Caspase-8 domain to the ER(T2) ligand binding domain, SEQ ID NO: 20 (protein)
chain: MSESRTSDKVYQMKNKPRGYCLIINNHDFSKAREDITQLRKMKDRKGTDCDKEALSKTFKELHFEIVSYDDCTANEIHEILEGYQSADHKNKDCFICCILSHGDKGVVYGTDGKEASIYDLTSYFTGSKCPSLSGKPKIFFIQACQGSNFQKGVPDEAGFEQQNHTLEVDSSSHKNYIPDEADFLLGMATVKNCVSYRDPVNGTWYIQSLCQSLRERCPQGDDILSILTGVNYDVSNKDDRRNKGKQMPQPTFTLRKKLFFPPLEPSAGDMRAANLWPSPLMIKRSKKNSLALSLTADQMVSALLDAEPPILYSEYDPTRPFSEASMMGLLTNLADRELVHMINWAKRVPGFVDLTLHDQVHLLECAWLEILMIGLVWRSMEHPVKLLFAPNLLLDRNQGKCVEGMVEIFDMLLATSSRFRMMNLQGEEFVCLKSIILLNSGVYTFLSSTLKSLEEKDHIHRVLDKITDTLIHLMAKAGLTLQQQHQRLAQLLLILSHIRHMSNKGMEHLYSMKCKNVVPLYDLLLEAADAHRLHAPTSRGGASVEETDQSHLATAGSTSSHSLQKYYITGEAEGFPATA
modifications: fusion protein Casp8-ER(T2)
For B3, the “cell viability in the presence” value with MEF5/N9 cells [1] is listed as 31%. In addition, the “relative β-galactosidase activity in presence of 4-OH-tamoxifen compared to the negative control” value with MEF5/N9 cells [2] came to 3%. Besides, in the series on MEF5/N9 cells [3], the “basal toxicity: relative β-galactosidase activity compared to the negative control in absence of 4-OH-tamoxifen” value turned out to be 17%.

B4: myrCasp8-ER(T2): murine Caspase-8 domain with N-terminal myristoylation motif fused to ER(T2) ligand binding domain, SEQ ID NO: 23 (protein)
chain: MGSSKSKPKDPSQRSESRTSDKVYQMKNKPRGYCLIINNHDFSKAREDITQLRKMKDRKGTDCDKEALSKTFKELHFEIVSYDDCTANEIHEILEGYQSADHKNKDCFICCILSHGDKGVVYGTDGKEASIYDLTSYFTGSKCPSLSGKPKIFFIQACQGSNFQKGVPDEAGFEQQNHTLEVDSSSHKNYIPDEADFLLGMATVKNCVSYRDPVNGTWYIQSLCQSLRERCPQGDDILSILTGVNYDVSNKDDRRNKGKQMPQPTFTLRKKLFFPPLEPSAGDMRAANLWPSPLMIKRSKKNSLALSLTADQMVSALLDAEPPILYSEYDPTRPFSEASMMGLLTNLADRELVHMINWAKRVPGFVDLTLHDQVHLLECAWLEILMIGLVWRSMEHPVKLLFAPNLLLDRNQGKCVEGMVEIFDMLLATSSRFRMMNLQGEEFVCLKSIILLNSGVYTFLSSTLKSLEEKDHIHRVLDKITDTLIHLMAKAGLTLQQQHQRLAQLLLILSHIRHMSNKGMEHLYSMKCKNVVPLYDLLLEAADAHRLHAPTSRGGASVEETDQSHLATAGSTSSHSLQKYYITGEAEGFPATA
modifications: N-terminal myristoylation motif; fusion protein myrCasp8-ER(T2)
For B4, the “cell viability in the presence” value in the series with MEF5/N9 cells [1] turned out to be 9%. The “relative β-galactosidase activity in presence of 4-OH-tamoxifen compared to the negative control” value in the series on MEF5/N9 cells [2] stood at 0.1%. Further, the “basal toxicity: relative β-galactosidase activity compared to the negative control in absence of 4-OH-tamoxifen” value in the series on MEF5/N9 cells [3] is 6%.
